This series can be described thus: label from the status in PepcDB records.
For the sequence “MSFEAFTELYIRDVKTRLKENTWLTKEHIIRTKILPYFGKLRISEISTKEIITWQNELLAYRDEKKKPYSQTYLKTLHNQLSAIFNHAVRYYELRSNPAAKVGNMGSE”, the protein production entry is “failed”.

As to “MPKILWKSLHLCFPSNLTKCYSSPCIPPSSADPDGIIQPNRPSIVLLNNFNLLYHNDNHHHPHRVIDLPSSSTTTTPAATSSSSTSSYESDISPDVSAAFASRRFFFSSPGRSNAITDSPEPRSREFSDNYDDATITSTKKKKKKVYDNSVTTTTTRLISGGTAVTQHVDSPDPLTDFRRSMQEMIDAAIDAGELSRDPNDGYDFLDELLLTYLSLNPADTHKFVIRAFSDILVSLLSEERRIC”, the protein production result is on record as “failed”.

As for “MAPHPEAAALLARSHRLGADPRNTNYAGGNASAKGTATDPVTGGDVELMWVKGSGGDLGTLTEAGLAVLRLDRLHALKGVYPGVEREDEMVAAFDYCLHGKGGAAPSIDTAMHGLVDAAHVDHLHPDSGIALACAADGEKLTAECFGDSVAWVPWRRPGFQLGLDIAAVKEANPQTIGCVLGGHGITAWGATAEECERNSLHIIRTAEAFLAERGKAEPFGPLEHHHHHH”, the protein production entry is “failed”.

As to “MEKNSLFSQRIRLRHLHTFVAVAQQGTLGRAAETLNLSQPALSKTLNELEQLTGARLFERGRQGAQLTLPGEQFLTHAVRVLDAINTAGRSLHRKEGLNNDVVRVGALPTAALGILPSVIGQFHQQQKETTLQVATMSNPMILAGLKTGEIDIGIGRMSDPELMTGLNYELLFLESLKLVVRPNHPLLQENVTLSRVLEWPVVVSPEGTAPRQHSDALVQSQGCKIPSGCIETLSASLSRQLTVEYDYVWFVPSGAVKDDLRHATLVALPVPGHGAGEPIGILTRVDATFSSGCQLMINAIRKSMPF”, the protein production entry is reported as “failed”.

For the sequence “MKIVVNNQSTLAAELMIVAQENLQKLVEQTKCPNSKALLDRRIFKAKSGEVLPLLHGDKIVILLGLGLRQDFIASEYDKIIAKAAEQLKKLAIKEISVDIDYAFENDNVKQFTLDTVRALISETYVFDQLKTEKENYSLEQIELVYSGDQDIEDSAKIGSAIACGQNYAKDLQNLPANICTTDYMLNEARELTSKYATFSLDYLDQDAMAELGMGCALAVGRGSYMSNYTVCMEYKGGNEGDAPIVLVGKGLVFDNGGICIKQAAGMDSMKMDMGGVAAVMGTMKAIAMLNLPVNVVGVMGLAENAVDARSYRPGDVLKSMKGITVEVSNTDAEGRLVLCDTLTYIGKYKPKAVIDLATLTGAMIISLGDAYSGMFANSDKLANSLEQAANASNDLIWRLPLHKPYLKKIESKVADMDNCGRDRSAGSIVAALFLSKFTEDYEWAHLDIAGSAMGDFASCKASGRPVPLLVHYLISQAK”, the protein production entry was “not failed”.

Consider “MSRNYKEDQTNEVEALDSIYCGDMEILATEPHHKFQIPIATEEYSSEEPEKGLACKLVFTFTATYPDGAPVVEIEEPENFEDMFETRLLEHLQKTIEENLGMEMIFSLVSSAQEWLNERWDEHKFHQEELREQKLREIEEEERKKFEGTRVTVESFLKWKLEFEESTGIAAKREKNNVSKKQTGRELFMCDNTLNDSDIKFLLEAGENIENVKIDETLFQDIGELDLDDDDDEDWVPGADDDDD”, for which the protein production result was “failed”.

Regarding “MNLFVLLFVFVFGIIGSYSSKFSEKNLFWLFVIVLAIIIGGRSISVPDTDQYLEFYQLTLSSSILDIPLYSYEIGFQLLTKILKLITNGSSFFYFGIIVLINSYFLFKSFSCFTDQSYPSKKSSGTLINQIKLQEFLLLYFSYWGLYYTGIVLRAGIAMSILIYLSTLLCSPYISLKKWSAIFLLAIISCSFHITALLGIIALIIFYISKKMTMRSYLLLFLLICIILFGKVSFWIVDMLDRNMPMIFSLIEDTDFAKLQAYSNIDASIKISFRFLFCLLIGLFFIICKRMPLYYYKYLNVYIVGLFLGALFSAIEAFSRIMDFFVIYSFILISMRLSTINSFKIRFSIMFSIVLIQLLFVYRIIIGL”, the protein production entry is “failed”.

As for “MNLILYLVTVFVALFAMVNPIGALPVLVSVTEGYSKDDFERVVRYAAMSEALMLFSFMLIGIYIFEVLGININDFKVAGGVLLFKVAFDMLQGRTSTTKLTPAETEESIERTSIGIAPIGTPLLAGPGSITAAIIYFNSYSVNIPEKIAVVISVSLVVVISYFILHYSSVLFKYLGKTGSLIISRIMGLLLAAIAVDFMVTGLAFIVKSITGV”, the protein production result was “failed”.

Turning to “MAIESGYILTTPCKNEEKSLPELAESIINQTITPKLWLIINDNSTDNSAKILRDIETKYNWIRVVTSEGQKRDLSFHYAEVVRYGLSLSLEISSAEKIPVEYIGLIDADMILEKNFFEKMIDRFEQDPNLGVASGSTAYFEAENLVTEKGRDNLPIGGLRVWRRECLIETGGFPLSYSADSVSNVLALLHGWETKKFEDIIGIQTRRTGSAEGLWKGYITKGESDYYRDYHPVYVLSKFIKYSFTHPFYIGIAYMEGYINGIVKIKKKICIPEVRRYYRKKHLEIGRYYAGKFKFKLLEHHHHHH”, the protein production entry is recorded as “failed”.

“MFRPPSIKDAKKIWELIGRCKPLDINSPYCYALIGRDFFDSSIVYEEEGRIKGVVIGYLRPRAPERLFVWQVAIEAKSRGKGIAKRAIEAILKNLERKGHCIQAIEATYTPSNLASKALFHALGREWKVVWIEENFLEGALLSAQEAHEEEWLITLPFSSEALGVQGANHANL”: the protein production entry is listed as “failed”.

On to “MSLSLWQQCLARLQDELPATEFSMWIRPLQAELSDNTLALYAPNRFVLDWVRDKYLNNINVLLNDFCGMDAPLLRFEVGSKPLVQTISQPAQSHHNPVSVARQQPVRMAPVRPSWDNSPVQAEHTYRSNVNPKHTFDNFVEGKSNQLARAAARQVADNPGGAYNPLFLYGGTGLGKTHLLHAVGNGIIARKPNAKVVYMHSERFVQDMVKALQNNAIEEFKRYYRSVDALLIDDIQFFANKERSQEEFFHTFNALLEGNQQIILTSDRYPKEINGVEDRLKSRFGWGLTVAIEPPELETRVAILMKKADENDIRLPGEVAFFIAKRLRSNVRELEGALNRVIANANFTGRSITIDFVREALRDLLALQEKLVTIDNIQKTVAEYYKIKIADLLSKRRSRSVARPRQMAMALAKELTNHSLPEIGDAFGGRDHTTVLHACRKIEQLREESHDIKEDFSNLIRTLSSLEHHHHHH”, for which the protein production result is “not failed”.

Turning to “MGSKKQIRVQNISHDNIYSGLRCFVDGSWKGSDKFSGLGWFCRSSNGDSPTMGAANLRRSLYPLHTEVEALLWSMKCMIGADNQEVAFFTDYSDLVKMVSSPTE”, the protein production entry is “failed”.

Turning to “MTATGLERSTANAQSLRNDSHQRSFHRFDGLTASSDITLEAVSSVDAIAAADWDACARSGTIVPHPDGAGGACTTATAAYNPFLSHAFFTALEQSGSASPRTGWGPRHLIAKHEGAIVGIVPCYLKSHSQGEYVFDRGWADAYERAGGNYYPKLQVSVPFTPATGPRLLIRDRIDSARVAGALANGLMALCDLSKASSVHVTFARESEWRFLAECGFLQRTDQQFHWHNAGYSSFDDFLATMNSRHRKGIKRERRDAVASGITIHHLTGADITEDAWDAFFEFYIETGSRKWGRPYLTREFYSLIGQSMSEDVLLVMAKRNGRWIAGAINFIGGDTLFGRHWGAIEHHPFLHFEVCYYQAIDFAITRGLKVVEAGAQGEHKIARGYLPQTTYSAHFIADPALRRAIADYLKRERMYVDEMGRELTEAGPFKKGNIADPA”, the protein production result is reported as “failed”.

“MTEDQVEILEYNFNKVNKHPDPTTLCLIAAEAGLTEEQTQKWFKQRLAEWRRSEGLPSECRSVTD”: the protein production result was “not failed”.

With “MALRTLSTFPSLPRRHTTTRREPNLTVIYRNPTTSIVCKSIANSEPPVSLSERDGFAAAAPTPGERFLENQRAHEAQKVVKKEIKKEKKKKKEEIIARKVVDTSVSCCYGCGAPLQTSDVDSPGFVDLVTYELKKKHHQLRTMICGRCQLLSHGHMITAVGGNGGYPGGKQFVSADELREKLSHLRHEKALIVKLVDIVDFNGSFLARVRDLVGANPIILVITKIDLLPKGTDMNCIGDWVVEVTMRKKLNVLSVHLTSSKSLDGVSGVASEIQKEKKGRDVYILGAANVGKSAFINALLKTMAERDPVAAAAQKYKPIQSAVPGTTLGPIQINAFVGGEKLYDTPGVHLHHRQAAVVHSDDLPALAPQNRLRGQSFDISTLPTQSSSSPKGESLNGYTFFWGGLVRIDILKALPETCFTFYGPKALEIHAVPTKTATAFYEAKLGVLLTPPSGKNQMQEWKGLQSHRLLQIEINDAKRPASDVAISGLGWISIEPIRKTRGTEPRDLNEAEHEIHICVSVPKPVEVFLRPTLPIGTSGTEWYQYRELTDKEEEVRPKWYF”, the protein production entry is “failed”.

These data come from a protein production outcome set (Wang et al. 2014).
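Also: failed if final PepcDB status was selected cloned or expressed and not failed if soluble or beyond.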
